Results: a protein production outcome set (Wang et al. 2014)
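Note: failed if final PepcDB status was selected cloned or expressed and not failed if soluble or beyond.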

Assay: label from the status in PepcDB records
For “MWDETVAGPKPEHGLGRLRNKITTQPLDIKGVGEGSSSKTVAAVAGSPGTPTTPGSARKENVWRSVFHPGSNIATRGMGTNLFDKPSHPNSPTVYDWLYSDDTRSKHR”, the protein production was “failed”.
With “MWHIFERFVNEYERWFLVHRFAYLSELQAVKCLLPEGRGVEIGVGTGRFAVPLKIKIGVEPSERMAEIARKRGVFVLKGTAENLPLKDESFDFALMVTTICFVDDPERALKEAYRILKKGGYLIVGIVDRESFLGREYEKNKEKSVFYKNARFFSTEELMDLMRKAGFEEFKVVQTLFKHPSELSEIEPVKEGYGEGAFVVIRGTKK” the protein production was “not failed”.
With “MWHYLFLAIYVTMIIGIATVTKKRIKGVSDFLLGGRNVNPWMSAFSYGTAYFSAVIFIGFAGKMGWSFGIPTMWIVVGNTIIGSFLAWQVLGKKTREMTQRLGASTMPSFLEKRYKSKNLESLTAFIIFFFLVPYSASIYKGLNFLFEGFGISPMNAYILMAALTAIYLYFGGFIAATLADFVQGCIMVIGVLLMVFFLSSNPEVGGFSGMLSNLSSIDPILVSPISEASFIPIIGLALLTSIGSWGLPQMIHKFYTIKSEKAAVSAKWVSTAFAFIITFGAAYIGTVSRLFYPDAASKVAAGLTSPDMIVPKIMEIALPDWVAALILVLVISASMSTLASLVLASSSVVSIDFVKGRLKPDLSDKNTMILMRLLCVLFVALSFVLAIVPNSYVLSLMALSWGLVSGCLLAPYFLGLYWKRTTKEGVWAGITSALAIMLGGACYFGVNSVYMPAVGSLAMIAPIFVVMAVSLITKPFESEHIDYIFNKK” the protein production was “failed”.
In the case of “MWITGASGGLGERIAYLCAAEGAHVLLSARREDRLIEIKRKITEEWSGQCEIFPLDVGRLEDIARVRDQIGSIDVLINNAGFGIFETVLDSTLDDMKAMFDVNVFGLIACTKAVLPQMLEQKKGHIINIASQAGKIATPKSSLYSATKHAVLGYSNALRMELSGTGIYVTTVNPGPIQTDFFSIADKGGDYAKNVGRWMLDPDDVAAQITAAIFTKKREINLPRLMNAGTKLYQLFPALVEKLAGR”, the protein production is reported as “failed”.
For “MWITQETWLKALPWNKKRYRSQIMEVICKHYTPLDIASQAIRTCWQSFEYSDDGGCKDKELIHRVGNIFRHSSTLEHLYYNFEIKGLSRGALQELSRHRIASLSVKSSRYTLRELKEVESFLPLNETNLERAKEFLVFVDNEKVNAMSVLALENLRILLSEHNIKNDLAKYAMPESYKTHLAYSINARSLQNFLTLRSSNKALKEMQDLAKALFDALPGEHQYLFEDCLKH”, the protein production was “failed”.
With “MWKRLLIVSAVSAAMSSMALAAPLTVGFSQVGSESGWRAAETNVAKSEAEKRGITLKIADGQQKQENQIKAVRSFVAQGVDAIFIAPVVATGWEPVLKEAKDAEIPVFLLDRSIDVKDKSLYMTTVTADNILEGKLIGDWLVKEVNGKPCNVVELQGTVGASVAIDRKKGFAEAIKNAPNIKIIRSQSGDFTRSKGKEVMESFIKAENNGKNICMVYAHNDDMVIGAIQAIKEAGLKPGKDILTGSIDGVPDIYKAMMDGEANASVELTPNMAGPAFDALEKYKKDGTMPEKLTLTKSTLYLPDTAKEELEKKKNMGY” the protein production was “failed”.
With “MWKRTITVPAPYDFAHVLDRLSLDPLMAVDVERQRITVPLHLDGLKIPVVIESIGTKEAPRFVVLAPHSNRQEDILERVSHLFQWQTPLAPVYDHFRTTELAPLFARYEGLPLVLDFDLYFCLMKCFIHQQLHLKVGYRLTERFVKTFGEERDGVWFYPRPEDIAARSYDDLRALQLSRRKAEYIVDVSRLIADGTLRLDDLEQMEDGEVMERLTAIRGIGPWTVQNFLLFGLGRPNVFPPADIGLQRAVERLFQLPKRPTASELALLGERWKPYTSYAALYLWRSIE” the protein production was “failed”.
With “MWLMSHDMLAIIWFGLWGVIWTVYFILDGYALGNGMIFPFVTKDRQERNQLQEAIGPFWGGNEVWLITAGGATFAAFPVTYANMFSYLYTPLFLVLLALFARAAGLEFMHKDDSPIWQKTCKWAFAIGSFLIAFLFGVTFANLYYGLQIGKNGYEGNLLSLLNHYGILGGLFFTAIFVVSGALWVMIKTTGEVSDRAYKIARPFSMAAAIILAIFYVATANRTNLFQNFTEYPVLFILPVLAMLMSVLALIMVYKHKIGLAFTFVCLTIAMFMTTGFAGMFPRMLPSRINDAYSTTLYNAAGSQLNLKIMFFVAMVMVPIVIGYQLWSYSIFKNKIHKDSAKGYH” the protein production was “failed”.
In the case of “MWLYYLQVVMDMRVYVEGYGCVLNTADTEIIKNSLKKHGFEVVNNLEEADIAIINTCVVRLETENRMIYRINELKNLGKEVVVAGCLPKALKNKVKGFLHIYPREAHKAGEILKNYVEKHYRMPYIEEDINKTLYKKLDYLKPSLITPLPICEGCIGNCSYCIVKIARGGLISYPREKIVNKAKELINKGAKCLLITAQDTACYGFDIGDNLANLLNELTQIKGEFIMRVGMMHAKNAELILDELIEVYQNEKVGKFLHLPLQSGDDEILKRMKRGYTVDEFKDIVNEFRRKIKNLCFTTDIIVGFPGETEEQFQNTLEVLRELKPDYIHGAKYSQRKGTEAAKMKQIDTKIRKRRSEILDKLRRELSYLNNKKYIGKAMKVLVLDEGKGYTDNFKVVKFEGGEVGEFRKVKITDAKTFGLKGELILLEHHHHHH”, the protein production is reported as “not failed”.
For “MWMPPRPEEVARKLRRLGFVERMAKGGHRLYTHPDGRIVVVPFHSGELPKGTFKRILRDAGLTEEEFHNL”, the protein production was “not failed”.
In the case of “MWSVTGALTVAVPPTAAACRTKPFLISSSFPKQTKKLHLSSPSLSLPSSHFSSSFKTAATSIEQQSSVNKGESTKYHFLVANAKFMLDEEEHFQEQLFERLRYFGERELVQDFWLVIEPKFLDNFPKITQRLRRPAVALVSTNGTWITFMKLRLDRVLYDSFEATSLDEALASNPTTLEFDKPKNWVAPYPKYEPGWWDTFLPKVTQESAV”, the protein production is reported as “failed”.
With “MWTYSEYIIFFGIYSFIGWVLETIFASVNDKKIVNRGFLTGFFCPIYGFGAILTVQCSRMVGLSFKNPIISLISSVIFSIFLVTFLEYVTGFILEAIFNCKWWDYSNDAANIHGYICLKYSLLWGMLAFLLVQTIHPLISKMVFNISATTKEKVSIFLLVYFMIDTIKSVIDALNLRQAIMEYSNFSINKYRERILKYKRLIIAFPRLIILNRDIRRIVNDRFYKIKLEIKSKIQELF” the protein production was “failed”.
In the case of “MWYTVQPGDSLYTISQRFGVTIAQIKSANQLTSDIIYVGQRLYIPIGIQAPVVYTVRPGDTLYLIARRYNTTVDSLMALNNLSSTELRIGQQLTIPLYTEAVVNVGTANIRRGPGTNFGIITRMTNGARLPVIGFSNNWYQVRLYNGREGWISGSIVTRNVYSGRRPITGVLGFYTLEEGPTLPSSFTSFANNTGQLSSTALFMFRISAANPTTIEKFGEFTDQDVRNLVAIAHRNNVKIMPVVHNLLYRPGGTTLAKNVVKTLVSDPRNRNAFALNLVNLIERYGFDGVNIDIEDVFIEDSDNLSLLYTEISEVLRPRGYFFSASVPSRVSDEPFNPFSDPFNYSVIGRAVDEFVVMLYNEFGWPGSPPGPAVTIGWMERVLRYTMSKMPRDKIMAAVSVFGFDFNLTTGRNTYVTYQSAINLARRYNSEIIFNEERQTPMFTYRDAQGNQHEVWFEDARSLRSKIQLAWELGIKGVALWRLGMEDPNIWPMLRNEVVVRKF”, the protein production is reported as “failed”.
With “MWYYFQPKRLCHNSFMIPEKLLTYTKTIFEYSHSTVYIKDKNFHYQYMNNRGLKQLQLQEKDIMGMPDKALPFGKYAHFYNSHDYSAMEEIIYFQLDDCITKNGEKIFALSHKLPLKDEDGKTHGVIGFTKFMNLHQLMNNLNSKNTFLTPNLKINVNVDDWLKTTINLSRREMEVLYYFLQGKSIKLIAPLLHITERTVIFHLNNIKSKWGCYNKEDIYTKSFEKGLKNLTIIWDLLAMRS” the protein production was “failed”.
For “MYAGRRDPSHVGIVMVGSPATATLILNDKVVVDLEGETLRLENGDAIALRPQAFAVLRHLVQNANRLVSKAELLEAVWGGAAVTDDSLVQCIHEIRRALGDERYAVLATVSRRGYRLSLERSDESALGGPSIAVLPFATMSGGEPNDYFADGLVEDIITNLSKIPGLFVIARNSSFGFRGEKADLRTIAAELRVRYLLQGSLRQSGGRLRIYAQLVDGASATHVWADRFEGAATDVFDLQDRLTEQIVGSIEPSVRRAEIERAHRKRPESLDAYDLYLRALPHAHANTPAQTDKALQLLARSIELQPDYVAAHGYAAWCYEQRYLRNGLDPADKAAALSHADIALGINSDDPQAMSIGAFVRANLTRDYDAAVEVLDRALAWNNNSTLAFGFSALVSAHSERHQRAVEHAHKALRLSPLDDPLSYHPYCALALTHLFAGAFADAARYAALAVRANPGFSIPYAYLAASHVGLGNVEAAHSAARRLIEVAPNFSVGGYVRTNLFQPYLMDALAAALRKAGLPE”, the protein production was “failed”.
